Assay results: patent US20160280792A1 (Kyowa Kirin, published 2016)

T1: IL-3Rα/GM-CSFRα chimeric protein, B domain of IL-3Rα replaced by that of GM-CSFRα, on HEK293T cells (human, UniProt P15509 115-213)
T1 construct: domain: B domain; The KpnI sites (GGTACC) at both junctions each encode an extra Gly-Thr; also called B domain substitution
T1 sequence: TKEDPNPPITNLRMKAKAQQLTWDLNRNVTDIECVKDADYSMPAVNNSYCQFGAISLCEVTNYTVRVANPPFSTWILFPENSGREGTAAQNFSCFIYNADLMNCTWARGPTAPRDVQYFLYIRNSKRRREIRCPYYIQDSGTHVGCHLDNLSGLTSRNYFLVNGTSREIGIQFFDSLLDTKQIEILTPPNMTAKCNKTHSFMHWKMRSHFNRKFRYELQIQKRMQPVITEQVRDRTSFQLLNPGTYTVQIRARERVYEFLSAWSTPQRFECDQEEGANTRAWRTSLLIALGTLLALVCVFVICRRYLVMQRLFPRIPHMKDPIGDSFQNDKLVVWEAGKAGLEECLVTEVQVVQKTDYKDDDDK

T2: soluble form of human IL-3Rα protein (extracellular region with C-terminal FLAG tag) (human, UniProt P26951 19-305)
T2 construct: Made in CHOras1 cells, purified on anti-FLAG gel; also called soluble form of IL-3Rα protein; soluble form of human IL-3Rα extracellular region
T2 sequence: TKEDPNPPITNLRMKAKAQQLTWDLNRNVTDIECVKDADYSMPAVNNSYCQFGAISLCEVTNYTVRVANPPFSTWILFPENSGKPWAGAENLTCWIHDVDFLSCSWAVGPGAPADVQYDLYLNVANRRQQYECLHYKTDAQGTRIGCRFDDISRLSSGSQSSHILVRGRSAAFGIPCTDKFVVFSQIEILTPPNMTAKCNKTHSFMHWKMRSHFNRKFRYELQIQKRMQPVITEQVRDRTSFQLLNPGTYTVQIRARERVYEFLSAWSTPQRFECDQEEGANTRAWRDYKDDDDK

T3: IL-3Rα/GM-CSFRα chimeric protein, region 6 (182-ILVRGRS-188) of IL-3Rα replaced by GM-CSFRα sequence, on … (human, UniProt P26951 19-378)
T3 construct: also called Region 6 (B)
T3 chain: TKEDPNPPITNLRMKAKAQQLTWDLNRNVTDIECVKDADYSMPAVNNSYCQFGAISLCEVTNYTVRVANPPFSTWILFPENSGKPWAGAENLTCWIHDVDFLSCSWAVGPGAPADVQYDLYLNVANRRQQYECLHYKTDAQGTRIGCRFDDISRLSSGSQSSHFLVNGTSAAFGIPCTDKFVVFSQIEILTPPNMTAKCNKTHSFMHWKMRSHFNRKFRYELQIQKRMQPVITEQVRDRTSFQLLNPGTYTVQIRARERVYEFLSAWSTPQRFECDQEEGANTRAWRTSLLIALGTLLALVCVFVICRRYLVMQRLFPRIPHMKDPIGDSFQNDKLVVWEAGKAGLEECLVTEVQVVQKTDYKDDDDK

T4: IL-3Rα/GM-CSFRα chimeric protein, region 7 (192-GIPCTDK-198) of IL-3Rα replaced by GM-CSFRα sequence, on … (human, UniProt P26951 19-378)
T4 construct: also called Region 7 (B)
T4 chain: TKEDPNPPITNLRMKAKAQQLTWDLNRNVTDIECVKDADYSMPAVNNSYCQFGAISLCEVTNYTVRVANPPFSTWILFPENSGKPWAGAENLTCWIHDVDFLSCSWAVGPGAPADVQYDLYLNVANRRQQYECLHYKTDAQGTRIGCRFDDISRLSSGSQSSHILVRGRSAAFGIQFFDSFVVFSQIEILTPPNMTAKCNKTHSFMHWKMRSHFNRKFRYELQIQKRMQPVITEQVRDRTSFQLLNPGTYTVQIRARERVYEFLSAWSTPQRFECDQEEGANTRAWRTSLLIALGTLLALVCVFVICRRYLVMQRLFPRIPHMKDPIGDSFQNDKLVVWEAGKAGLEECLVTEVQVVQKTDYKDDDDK

T5: IL-3Rα/GM-CSFRα chimeric protein, C domain of IL-3Rα replaced by that of GM-CSFRα, on HEK293T cells (human, UniProt P15509 214-327)
T5 construct: domain: C domain; KpnI sites at both junctions each encode an extra Gly-Thr; also called C domain substitution
T5 sequence: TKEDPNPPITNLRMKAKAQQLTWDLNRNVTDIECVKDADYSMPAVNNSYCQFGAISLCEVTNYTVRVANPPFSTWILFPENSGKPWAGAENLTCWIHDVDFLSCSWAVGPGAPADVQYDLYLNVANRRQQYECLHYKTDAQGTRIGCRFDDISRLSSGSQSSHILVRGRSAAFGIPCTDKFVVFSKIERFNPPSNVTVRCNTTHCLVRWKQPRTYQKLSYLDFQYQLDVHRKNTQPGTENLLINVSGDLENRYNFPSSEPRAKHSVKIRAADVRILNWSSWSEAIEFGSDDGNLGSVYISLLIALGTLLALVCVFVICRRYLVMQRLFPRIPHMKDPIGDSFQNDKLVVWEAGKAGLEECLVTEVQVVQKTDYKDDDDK


Legend:
[1] = target: T1, IL-3Rα/GM-CSFRα chimeric protein, B …; assay: flow cytometry, labelled antibody at 1 µg/ml, HEK293T cells expressing the construct
Procedure: (§1) HEK293T cell (ATCC CRL 1268) was used for the preparation of the IL-3Rα/GM-CSFRα chimeric protein expression cell. Using 293Fectin (Invitrogen), the plasmid DNA obtained in the above was introduced as an expression vector into the HEK293T. The HEK293T to which the expression vector was introduced was cultured using a shaker under conditions of 5% CO₂ and 37° C. after 2 days of the introduction, the […] was used for in the flow cytometry analysis.
(§2) From 100,000 to 1,000,000 cells of the chimeric protein expression cell were allowed to react for 30 minutes on ice with at a concentration of 1 μg/ml with an AlexaFlour488-labeled human antibody or a commercially available FITC-labeled anti-IL-3Rα mouse antibody (7G3 or 9F5: both from BD Biosciences, 6H6: Acris Antibodies, AC145: Milteny Biotech, 107D2.08: Dendritics). A staining medium (Dulbecco's PBS supplemented with 2% fetal bovine serum, 2 mM EDTA and 0.05% NaN₃) was used for the dilution of antibodies and cells. Next, the cells reacted with antibodies were washed three times with the staining medium and whether the labeled antibody bound to the cell was confirmed by flow cytometry.

[2] = target: T2, soluble form of human IL-3Rα protein …; assay: SPR (Biacore 2000): antibody captured on anti-human antibody CM5 chip, soluble IL-3Rα as analyte, 1:1 Langmuir fit
Procedure: Specifically, CM5 (research grade) was used for a sensor tip (each GE). Firstly, the CM5 tip was activated by applying an equivalent mixture of 400 mM EDC (N-ethyl-N′-(3-dimethylaminopropyl)carbodiimidehydrochloride) and 100 mM NHS (N-hydroxysuccinimide) to the CM5 tip. Next, an antibody to the human antibody attached to the Human Antibody Capture Kit (GE) (hereinafter, referred to as anti-human antibody antibody) was diluted with the solution attached to the kit and applied thereto, thereby immobilizing the required amount of the anti-human antibody antibody to the CM5 tip. Regarding the mouse antibody to be used as a control, an antibody to the mouse antibody attached to the Mouse Antibody Capture Kit (GE) (hereinafter, referred to as anti-mouse antibody antibody) was diluted with the solution attached to the kit and applied thereto, thereby immobilizing a necessary amount thereof to the CM5 tip. Next, the surface of the activated tip was blocked and inactivated by applying 1 M of ethanolamine dihydrochloride thereto. By the above steps until this, preparation of a CM5 sensor tip which can measure the dissociation constant KD was completed.
Next, each of anti-IL-3Rα antibodies, was diluted to give a concentration of 5 μg/ml with HBS-FP buffer (GE) one kind per one flow cell and applied, thereby allowing it to bind to the immobilized anti-human antibody antibody or anti-mouse antibody antibody. Next, the soluble form of IL-3Rα protein was applied thereto. In order to dissociate the bound anti-IL-3Rα antibody and soluble form of IL-3Rα protein, 3 M MgCl₂ attached to Human Antibody Capture Kit or pH 1.7 of Glycine-HCl attached to Mouse Antibody Capture Kit was applied in the amount attached to the kit. The steps until this were regarded as one step. By repeating the same steps using two or more concentrations of the soluble form of IL-3Rα protein, data for calculating association and dissociation constants (sensorgram) were obtained.
In the analysis, Biaevaluation software (GE) was used and Biaevaluation Software Handbook was referred. Specifically, by carrying out simultaneous analysis of kinetics analysis, employing basically the 1:1 Langmuir binding reaction model and fitting, association rate constant (Ka) and dissociation rate constant (Kd) were calculated, and the value of dissociation constant KD was calculated by the calculation of Kd/Ka.

[3] = target: T3, IL-3Rα/GM-CSFRα chimeric protein, …; assay: flow cytometry, labelled antibody at 1 µg/ml, HEK293T cells expressing the construct
[4] = target: T4, IL-3Rα/GM-CSFRα chimeric protein, …; assay: as above
[5] = target: T5, IL-3Rα/GM-CSFRα chimeric protein, C …; assay: as above
Procedure: as §1, §2

Row | Binder | binding result [1] | Kd [2] [nM] | binding result [3] | binding result [4] | binding result [5]
1 | Old4 anti-human IL-3Rα human antibody (antibody, human IgG1, V domains shown, Human antibody from KM mouse hybridoma; recombinant form made in N5KG1-Val Lark vector (human IgG1, kappa) in HEK293F) VH: QVQLLQSGAEVKKPGSSVKVSCKASGGTFSTYAISWVRQAPGQGLEWMGGIIPIFGIVNYAQKFQGRVTITADESTSTAYMELSSLRSEDTAVYYCARGGGSGPDVLDIWGQGTMVTVSS VL: VIWMTQSPSLLSASTGDRVTISCRMSQGIRSYLAWYQQKPGKAPELLIYAASTLQSGVPSRFSGSGSGTDFTLTISSLQSEDFATYYCQQYYSFPYTFGQGTKLEIK | no binding (tested: 1 µg/ml) |  |  |  | 
2 | chimeric 7G3 antibody (mouse 7G3 variable regions, human IgG1 constant region) (antibody, V domains shown, also called 7G3 (Chimeric antibody)) VH: EVQLQQSGPELVKPGASVKMSCKASGYTFTDYYMKWVKQSHGKSLEWIGDIIPSNGATFYNQKFKGKATLTVDRSSSTAYMHLNSLTSEDSAVYYCTRSHLLRASWFAYWGQGTLVTVSA VL: DFVMTQSPSSLTVTAGEKVTMSCKSSQSLLNSGNQKNYLTWYLQKPGQPPKLLIYWASTRESGVPDRFTGSGSGTDFTLTISSVQAEDLAVYYCQNDYSYPYTFGGGTKLEIK |  | 1.88 |  |  | 
3 | Old17 anti-human IL-3Rα human antibody (antibody, human IgG1, V domains shown, Human antibody; recombinant form in N5KG1-Val Lark vector (human IgG1, kappa)) VH: QVQLVQSGAEVKKPGSSVKVSCKTSGGTFSNFAISWVRQAPGQGLEWMGGIIPIFGSTNYAQKFQGRVTINADESTSTAYMELSSLRSEDTAVYYCAGGDKYGPYYFHYWGQGTLVTVSS VL: DIQMTQSPSSLSASVGDRVTITCRASQGISSWLAWYQQKPEKAPKSLIYAASSLQSGVPSRFSGSGSGTDFTLTISSLQPEDFATYYCQQYNSYPYTFGQGTKLEIK |  | 1.43 |  |  | 

The next lines start with the values.

Row | binding result [1] | Kd [2] [nM] | binding result [3] | binding result [4] | binding result [5] | Binder
4 | no binding (tested: 1 µg/ml) |  |  |  |  | Old5 anti-human IL-3Rα human antibody (antibody, human IgG1, V domains shown, Human antibody; recombinant form in N5KG1-Val Lark vector (human IgG1, kappa)) VH: QVQLVQSGAEVKKPGSSVKVSCKASGGTFSTYAISWVRQAPGQGLEWMGGLIPIFDIENYAQKFQGRVTITADESTSTVYMELSSLRSEDTAMYYCARGGGSGPDVLDIWGQGTMVTVSS VL: VIWMTQSPSLLSASTGDRVTISCRMSQGIRSYLAWYQQKPGKAPELLIYAASTLQSGVPSRFSGSGSGTDFTLTISSLQSEDFATYYCQQYYSFPYTFGQGTKLEIK
5 | no binding (tested: 1 µg/ml) | 0.798 | no binding (tested: 1 µg/ml) | no binding (tested: 1 µg/ml) |  | New102 anti-human IL-3Rα human antibody (antibody, human IgG1, V domains shown, Human antibody; recombinant form in N5KG1-Val Lark vector (human IgG1, kappa)) VH: QVQLVQSGAEVKKPGSSVKVSCMASGGTVSSYAISWVRQAPGQGLEWMGEIIPIFGIVNYAQKFQGRVTITADESTNTAYMELSSLRSEDTAIYYCARETAVAGILGYWGQGTLVTVSS VL: DIQMTQSPSSLSASVGDRVTITCRASQGISSWLAWYQQKPEKAPKSLIYAASSLQSGVPSRFSGSGSGTDFTLTISSLQPEDFATYYCQQYNSYPYTFGQGTKLEIK
6 | no binding (tested: 1 µg/ml) | 1.26 |  |  | no binding (tested: 1 µg/ml) | Old6 anti-human IL-3Rα human antibody (antibody, human IgG1, V domains shown, Human antibody) VH: EVQLVESGGGLVKPGGSLRLSCAASGFTFSSHNMNWVRQAPGKGLEWVSSISSSSSYIYYADSVKGRFTISRDNAKNSLYLQMNSLRAEDTAVYYCAREDWGYFDYWGQGTLVTVSS VL: AIQLTQSPSSLSASVGDRVTITCRASQGISSDLAWYQQKPGKAPKLLIYDASSLESGVPSRFSGSGSGTDFTLTISSLQPEDFATYYCQQFNSYPFTFGPGTKVDIK
